Target: Strep II-Avi BCL6^5-360

B1: Flag-SIAH1^FL (protein)
chain: MSRQTATALPTGTSKCPPSQRVPALTGTTASNNDLASLFECPVCFDYVLPPILQCQSGHLVCSNCRPKLTCCPTCRGPLGSIRNLAMEKVANSVLFPCKYASSGCEITLPHTEKADHEELCEFRPYSCPCPGASCKWQGSLDAVMPHLMHQHKSITTLQGEDIVFLATDINLPGAVDWVMMQSCFGFHFMLVLEKQEKYDGHQQFFAIVQLIGTRKQAENFAYRLELNGHRRRLTWEATPRSIHEGIATAIMNSDCLVFDTSIAQLFAENGNLGINVTISMC
  in vitro ubiquitination (western blot, Strep tag II antibody): BCL6 is a substrate for SIAH1 (FIG. 10D), and that the rate and magnitude of ubiquitination is accelerated by BI-3802 (FIG. 4B)
